Measurements reported in paper PMC4180030.

Molecular target: dimeric oxygen-evolving photosystem II complex isolated from WT T. elongatus (Thermosynechococcus elongatus (endogenous in T. elongatus BP1)) (UniProt P0A444)
Assay: co-purification by two-step anion-exchange chromatography, immunoblotting; PSII complexes isolated from WT T. elongatus membranes (Kern et al. 2005); semi-quantitative immunoblotting of thylakoids and PSII against recombinant protein standards

B1: CyanoQ (Tll2057) from Thermosynechococcus elongatus (natural protein)
chain: CGGPSATTPPPPTYSELQITRIQDYLRDIEKNAERFADLEVSVAKGDWQEARNIMRGPLGEMLMDMRALNRNLLAKDQPTPTALTRALTDDFLKIDQGADLDSVTVAQEGFREAEADFKAYLNSLPELS
B1 showed a stoichiometry N (CyanoQ per PSII monomer) of 0.4.
